B1: Rieske FeS protein of CIII2 (natural protein, Rhodobacter capsulatus)
chain: MSHAEDNAGTRRDFLYHATAATGVVVTGAAVWPLINQMNASADVKAMASIFVDVSAVEVGTQLTVKWRGKPVFIRRRDEKDIELARSVPLGALRDTSAENANKPGAEATDENRTLPAFDGTNTGEWLVMLGVCTHLGCVPMGDKSGDFGGWFCPCHGSHYDSAGRIRKGPAPRNLDIPVAAFVDETTIKLG
B2: cytochrome b of CIII2 (natural protein, Rhodobacter capsulatus)
chain: MSGIPHDHYEPKTGIEKWLHDRLPIVGLVYDTIMIPTPKNLNWWWIWGIVLAFTLVLQIVTGIVLAMHYTPHVDLAFASVEHIMRDVNGGWAMRYIHANGASLFFLAVYIHIFRGLYYGSYKAPREITWIVGMVIYLLMMGTAFMGYVLPWGQMSFWGATVITGLFGAIPGIGPSIQAWLLGGPAVDNATLNRFFSLHYLLPFVIAALVAIHIWAFHTTGNNNPTGVEVRRTSKADAEKDTLPFWPYFVIKDLFALALVLLGFFAVVAYMPNYLGHPDNYVQANPLSTPAHIVPEWYFLPFYAILRAFAADVWVVILVDGLTFGIVDAKFFGVIAMFGAIAVMALAPWLDTSKVRSGAYRPKFRMWFWFLVLDFVVLTWVGAMPTEYPYDWISLIASTYWFAYFLVILPLLGATEKPEPIPASIEEDFNSHYGNPAE

Experiments:
[1] = molecular target: B2; test: cryo-EM structure
[2] = molecular target: the molecule itself; test: cryo-EM structure

| binding result [1] | Binder | binding result [2] |
| --- | --- | --- |
| binds | B1 |  |
|  | B2 | binds |
